Assay results from article PMC6191146, “Positive and negative regulation of transferred nif genes mediated by indigenous GlnR in Gram-positive Paenibacillus polymyxa”.

Tests used:
[1] = target: His6-tagged GlnR of Paenibacillus polymyxa WLY78 (Paenibacillus polymyxa WLY78); test: SEC; Superdex 200 10/300, 50 mM Tris-HCl pH 7.4, 300 mM NaCl; His6-GlnR at 2 mg/ml; dimer to monomers, broad peak with two maxima
[2] = target: T1, GlnR (Paenibacillus polymyxa WLY78, UniProt A0A074LG55 1-137); test: EMSA; GlnR alone; EMSA: 20 mM HEPES pH 7.6, 1 mM EDTA, 10 mM (NH4)2SO4, 1 mM DTT, 0.2% Tween 20, 30 mM KCl, 1 ug poly[d(A-T)], 0.3 nM probe, 25 C; SPR: 10 mM HEPES pH 7.4, 300 mM NaCl, 3 mM MgCl2, 0.2 mM EDTA, 0.005% Tween-20, 25 C; conditions: protein: recombinant; tags: N-terminal His6 (pET-28b); chain copies: 2; label: DIG 3' end; blunt
T1 sequence: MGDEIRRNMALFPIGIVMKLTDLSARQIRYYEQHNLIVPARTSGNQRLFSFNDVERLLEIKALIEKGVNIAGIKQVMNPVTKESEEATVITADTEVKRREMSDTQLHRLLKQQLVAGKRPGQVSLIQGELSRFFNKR

[3] = target: T1, GlnR; test: SPR; GlnR alone; EMSA: 20 mM HEPES pH 7.6, 1 mM EDTA, 10 mM (NH4)2SO4, 1 mM DTT, 0.2% Tween 20, 30 mM KCl, 1 ug poly[d(A-T)], 0.3 nM probe, 25 C; SPR: 10 mM HEPES pH 7.4, 300 mM NaCl, 3 mM MgCl2, 0.2 mM EDTA, 0.005% Tween-20, 25 C; conditions: protein: recombinant, tags: N-terminal His6 (pET-28b), chain copies: 2, label: 5' biotin on capture linker S7, 39 bp duplex
[4] = target: T1, GlnR; test: SPR; GlnR alone; fast dissociation; EMSA: 20 mM HEPES pH 7.6, 1 mM EDTA, 10 mM (NH4)2SO4, 1 mM DTT, 0.2% Tween 20, 30 mM KCl, 1 ug poly[d(A-T)], 0.3 nM probe, 25 C; SPR: 10 mM HEPES pH 7.4, 300 mM NaCl, 3 mM MgCl2, 0.2 mM EDTA, 0.005% Tween-20, 25 C; conditions: protein: recombinant; tags: N-terminal His6 (pET-28b); chain copies: 2; label: 5' biotin on capture linker S7; 39 bp duplex; 3' overhang 20 nt of BS1R paired to the capture linker
[5] = target: T1, GlnR; test: SPR; GlnR alone; slow dissociation; EMSA: 20 mM HEPES pH 7.6, 1 mM EDTA, 10 mM (NH4)2SO4, 1 mM DTT, 0.2% Tween 20, 30 mM KCl, 1 ug poly[d(A-T)], 0.3 nM probe, 25 C; SPR: 10 mM HEPES pH 7.4, 300 mM NaCl, 3 mM MgCl2, 0.2 mM EDTA, 0.005% Tween-20, 25 C; conditions: protein: recombinant; tags: N-terminal His6 (pET-28b); chain copies: 2; label: 5' biotin on capture linker S7; 39 bp duplex; 3' overhang 20 nt of BS2R paired to the capture linker

“His6-tagged GlnR of Paenibacillus polymyxa WLY78 (natural protein)” gave a stoichiometry N [1] of 2.

B1: EMSA probe mutated site I (TGACGT to GGTACC) (dsDNA)
DNA 1: ACCGCGCACATGTAAAGTGTACGATATATTACTGGTACCAAAATTTGACACATATGTGA
DNA 2: TCACATATGTGTCAAATTTTGGTACCAGTAATATATCGTACACTTTACATGTGCGCGGT
B1: no binding [2].

B2: EMSA probe mutated site II (ATAACG to ATCGAT) (dsDNA)
DNA 1: AGACAAAAACAGAGATTTATGTAAGGGAATAATCGATAGAGAGGAGGGAATGA
DNA 2: TCATTCCCTCCTCTCTATCGATTATTCCCTTACATAAATCTCTGTTTTTGTCT
B2: no binding [2].

B3: SPR oligo site I (BS1F/BS1R on capture linker) (dsDNA)
DNA 1: GTAAAGTGTACGATATATTACTTGACGTAAAATTTGACA
DNA 2: TGTCAAATTTTACGTCAAGTAATATATCGTACACTTTACCCTACCCTACGTCCTCCTGC
DNA 3: GCAGGAGGACGTAGGGTAGG
With B3 the Ka ([3]; 3' overhang 20 nt of BS1R paired to the capture linker) was 1.09e+06 M-1 (unit not printed in text) and the Kd [4] was 9.16e-07 M (unit not printed in text).

B4: SPR oligo site II (BS2F/BS2R on capture linker) (dsDNA)
DNA 1: AACAGAGATTTATGTAAGGGAATATAACGTAGAGAGGAG
DNA 2: CTCCTCTCTACGTTATATTCCCTTACATAAATCTCTGTTCCTACCCTACGTCCTCCTGC
DNA 3: GCAGGAGGACGTAGGGTAGG
For B4, the Ka ([3]; 3' overhang 20 nt of BS2R paired to the capture linker) was 1.86e+07 M-1 (unit not printed in text) and the Kd [5] was 5.37e-08 M (unit not printed in text).
